± gives the uncertainty stated by the source.

The data set in a line: self-splicing fitness, log relative to wild type (ln ratio); higher = more splicing; Tetrahymena group I intron in knt gene, E. coli kanamycin selection, DiMSum; sequences stand for … in CUCUCU…GGAGGGAAAAGUUAUCAGGCAUGCACCUGGUAGCUAGUCUUUAAACCAAUAGAUUGCAUCGGUUUAAAAGGCAAGACCGUCAAAUUGCGGGAAAGGGGUCAACAGCCGUUCAGUACCAAGUCUCAGGGGAAACUUUGAGAUGGCCUUGCAAAGGGUAUGGUAAUAAGCUGACGGACAUGGUCCUAACCACGCAGCCAAGUCCUAAGUCAACAGAUCUUCUGUUGAUAUGGAUGCAGUUCACAGACUAAAUGUCGGUCGGGGAAGAUGUAUUCUUCUCAUAAGAUAUAGUCGGACCUCUCCUUAAUGGGAGCUAGCGGAUGAAGUGAUGCAACACUGGAGCCGCUGGGAACUAAUUUGUAUGCGAAAGUAUAUUGAUUAGUUUUGGAGUACUCGUGGUCG
A digest of the protocol:
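Library with all eight P1ex-region intron nucleotides randomised, intron inside the knt kanamycin-resistance gene on pET-22b(+), in E. coli BL21(DE3). Cells grew overnight at 37°C or 30°C on LB agar with or without 25 μg/mL kanamycin (plus 100 μg/mL carbenicillin, 50 μM IPTG, 0.2% rhamnose), in six replicate transformations. Pooled colonies were amplicon-sequenced on Illumina HiSeq 2500. DiMSum fitness is the error-weighted combination of wild-type-normalised replicate fold changes, kanamycin versus none.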

With UACAAGCAAUAUUACGUACA, the “self-splicing fitness (ln)” value runs as follows: (30 °C) -1.56 ± 0.084; (37 °C) -0.15 ± 0.086. With GAUUAGCAAUAUUACGGCGG, the “self-splicing fitness (ln)” value was -0.96 ± 0.16 (30 °C) and -2.17 ± 0.25 (37 °C). The like results for GCGAAGCAAUAUUACGGGGC were, in that order, -3.1 ± 0.24 and -1.82 ± 0.23. With CGUGAGCAAUAUUACGUAUA, the “self-splicing fitness (ln)” value reads like this: (30 °C) -2.71 ± 0.18; (37 °C) -1.55 ± 0.18. As for CGGAAGCAAUAUUACGCGCG, the “self-splicing fitness (ln)” value is -3.13 ± 0.33 (30 °C) and -0.88 ± 0.24 (37 °C). For CUAUAGCAAUAUUACGUAGG, the “self-splicing fitness (ln)” value by setting is: (30 °C) -1.44 ± 0.085; (37 °C) -0.685 ± 0.13. Consider UGGGAGCAAUAUUACGAUAG, for which, under “30 °C”, the “self-splicing fitness (ln)” value was -3.25 ± 0.32.

As for UGCCAGCAAUAUUACGGCAU, the “self-splicing fitness (ln)” value (30 °C) is -2.48 ± 0.15 and the “self-splicing fitness (ln)” value (37 °C) was -3.23 ± 0.26.

In the case of AGCUAGCAAUAUUACGGUGA, the “self-splicing fitness (ln)” value by setting is: (30 °C) -1.81 ± 0.2; (37 °C) -0.51 ± 0.2.

UGCCAGCAAUAUUACGAUUC: the “self-splicing fitness (ln)” value was -2.68 ± 0.18 (30 °C) and -2.41 ± 0.3 (37 °C).

Take CACAAGCAAUAUUACGAUUG: the “self-splicing fitness (ln)” value is, setting by setting: (30 °C) -2.41 ± 0.064; (37 °C) -1.15 ± 0.075. Take CCACAGCAAUAUUACGCACA: the “self-splicing fitness (ln)” value runs as follows: (30 °C) -2.44 ± 0.15; (37 °C) -2.33 ± 0.25. Regarding UAAUAGCAAUAUUACGCCUU, the “self-splicing fitness (ln)” value was -3.48 ± 0.21 (30 °C) and -1 ± 0.14 (37 °C). The like results for CCUUAGCAAUAUUACGACAU were, in that order, -3.677 ± 0.028 and -2.85 ± 0.043. In the same order, the values of CAUUAGCAAUAUUACGGCGA are -2.09 ± 0.3 and -3.32 ± 0.47. The like results for AUAAAGCAAUAUUACGAAAA were, in that order, -1.4 ± 0.091 and -0.609 ± 0.11. Take UGACAGCAAUAUUACGCUGA: the “self-splicing fitness (ln)” value (30 °C) was -2.69 ± 0.17 and the “self-splicing fitness (ln)” value (37 °C) was -2.08 ± 0.24.

In the case of GGCGAGCAAUAUUACGAAGU, the “self-splicing fitness (ln)” value (30 °C) is -2.81 ± 0.44 and the “self-splicing fitness (ln)” value (37 °C) was -1.21 ± 0.19. GCCGAGCAAUAUUACGUCAC: the “self-splicing fitness (ln)” value (37 °C) is -1.57 ± 0.24. As for CGAGAGCAAUAUUACGGGCA, the “self-splicing fitness (ln)” value is, setting by setting: (30 °C) -3.47 ± 0.28; (37 °C) -2.53 ± 0.44. The like results for AGAAAGCAAUAUUACGUCCA were, in that order, -1.06 ± 0.1 and -0.056 ± 0.13. Take GGAGAGCAAUAUUACGCAAG: the “self-splicing fitness (ln)” value (37 °C) was -3.71 ± 0.46. Consider CGAUAGCAAUAUUACGUUCG, for which the “self-splicing fitness (ln)” value (30 °C) was -3.06 ± 0.24 and the “self-splicing fitness (ln)” value (37 °C) was -1.9 ± 0.33. The like results for GAGAAGCAAUAUUACGUUCU were, in that order, -4 ± 0.36 and -2.01 ± 0.23. With AGAGAGCAAUAUUACGGCUA, the “self-splicing fitness (ln)” value is, setting by setting: (30 °C) -1.86 ± 0.46; (37 °C) -2.19 ± 0.39.

In the case of GCACAGCAAUAUUACGAAAG, the “self-splicing fitness (ln)” value by setting is: (30 °C) -3.79 ± 0.15; (37 °C) -1.91 ± 0.11. On to GGGCAGCAAUAUUACGUGUG, for which the “self-splicing fitness (ln)” value is, setting by setting: (30 °C) -2.34 ± 0.14; (37 °C) -1.26 ± 0.16.

As for CACAAGCAAUAUUACGGUUU, the “self-splicing fitness (ln)” value is -3.34 ± 0.14 (30 °C) and -2.59 ± 0.19 (37 °C).

CACGAGCAAUAUUACGUGAG: the “self-splicing fitness (ln)” value (30 °C) is -4.08 ± 0.19 and the “self-splicing fitness (ln)” value (37 °C) is -2.38 ± 0.19.

In the case of GACUAGCAAUAUUACGACCA, the “self-splicing fitness (ln)” value (30 °C) is -0.781 ± 0.17 and the “self-splicing fitness (ln)” value (37 °C) worked out at 0.287 ± 0.18. In the same order, the values of UUUUAGCAAUAUUACGCCCA are -0.313 ± 0.22 and 0.00602 ± 0.28.

On to UGCCAGCAAUAUUACGCUCC, for which the “self-splicing fitness (ln)” value was -2.88 ± 0.12 (30 °C) and -1.15 ± 0.14 (37 °C). Regarding GGGAAGCAAUAUUACGCUCG, the “self-splicing fitness (ln)” value reads like this: (30 °C) -0.703 ± 0.27; (37 °C) -1.03 ± 0.18. UAACAGCAAUAUUACGGCGC: the “self-splicing fitness (ln)” value by setting is: (30 °C) -2.5 ± 0.13; (37 °C) -1.44 ± 0.13. In the same order, the values of CUCAAGCAAUAUUACGACCU are -2.96 ± 0.15 and -1.34 ± 0.17. In the same order, the values of GGCAAGCAAUAUUACGAGGG are -2.89 ± 0.13 and -2.34 ± 0.14.

For AGUAAGCAAUAUUACGGCAU, the “self-splicing fitness (ln)” value is -0.486 ± 0.11 (30 °C) and -0.411 ± 0.12 (37 °C).

Take CCACAGCAAUAUUACGUAAA: the “self-splicing fitness (ln)” value is, setting by setting: (30 °C) -3.84 ± 0.17; (37 °C) -2.06 ± 0.18.

Regarding AUUGAGCAAUAUUACGCCUC, the “self-splicing fitness (ln)” value is -2.53 ± 0.48 (30 °C) and -1.27 ± 0.42 (37 °C). In the case of AUUCAGCAAUAUUACGAAAG, the “self-splicing fitness (ln)” value is, setting by setting: (30 °C) -1.5 ± 0.11; (37 °C) -1.03 ± 0.13. As for CUCAAGCAAUAUUACGUUGG, the “self-splicing fitness (ln)” value is, setting by setting: (30 °C) -2.93 ± 0.12; (37 °C) -1.5 ± 0.13. In the same order, the values of AGCAAGCAAUAUUACGCCAC are -3.17 ± 0.28 and -3.33 ± 0.28. The like results for GAUUAGCAAUAUUACGAGCA were, in that order, -1.27 ± 0.17 and 0.106 ± 0.14. The like results for CAAUAGCAAUAUUACGUAAC were, in that order, -3.94 ± 0.35 and -3.27 ± 0.43. In the case of CCAGAGCAAUAUUACGCCUC, the “self-splicing fitness (ln)” value was -3.12 ± 0.31 (30 °C) and 0.134 ± 0.26 (37 °C). Consider UAUUAGCAAUAUUACGGACG, for which the “self-splicing fitness (ln)” value is, setting by setting: (30 °C) -0.257 ± 0.11; (37 °C) 0.171 ± 0.12. The like results for UUGUAGCAAUAUUACGCGUA were, in that order, -1.31 ± 0.18 and -0.742 ± 0.22. In the same order, the values of GACUAGCAAUAUUACGACUU are 0.355 ± 0.06 and 0.58 ± 0.08.

In the case of CGUCAGCAAUAUUACGCCUA, the “self-splicing fitness (ln)” value runs as follows: (30 °C) -2.32 ± 0.29; (37 °C) -0.757 ± 0.18. The like results for ACGAAGCAAUAUUACGUAGA were, in that order, -3.72 ± 0.24 and -2.89 ± 0.27. The like results for AGCUAGCAAUAUUACGUCCA were, in that order, -1.52 ± 0.12 and -0.378 ± 0.11. Turning to AUGAAGCAAUAUUACGGCCG, the “self-splicing fitness (ln)” value (30 °C) was -0.163 ± 0.18 and the “self-splicing fitness (ln)” value (37 °C) worked out at 0.947 ± 0.26. As for UGCCAGCAAUAUUACGAAAC, under “37 °C”, the “self-splicing fitness (ln)” value was -2.42 ± 0.23. On to ACUAAGCAAUAUUACGCGUG, for which the “self-splicing fitness (ln)” value is, setting by setting: (30 °C) -1.58 ± 0.098; (37 °C) -0.684 ± 0.095. Take CGCAAGCAAUAUUACGAGAU: the “self-splicing fitness (ln)” value was -3.04 ± 0.38 (30 °C) and -1.59 ± 0.26 (37 °C). In the same order, the values of AACCAGCAAUAUUACGAUUA are -0.368 ± 0.056 and -0.164 ± 0.067.

Consider GAUCAGCAAUAUUACGAAAA, for which the “self-splicing fitness (ln)” value is, setting by setting: (30 °C) -0.449 ± 0.2; (37 °C) -0.691 ± 0.23. As for GAACAGCAAUAUUACGAAAC, the “self-splicing fitness (ln)” value (30 °C) is -0.693 ± 0.1 and the “self-splicing fitness (ln)” value (37 °C) is -0.301 ± 0.12. The like results for GUGUAGCAAUAUUACGACAA were, in that order, -0.665 ± 0.14 and -0.365 ± 0.21. In the same order, the values of GUUCAGCAAUAUUACGGUCC are -0.652 ± 0.19 and 0.182 ± 0.23. On to AUGCAGCAAUAUUACGUUGU, for which the “self-splicing fitness (ln)” value (30 °C) is -4.08 ± 0.16 and the “self-splicing fitness (ln)” value (37 °C) is -3.03 ± 0.15.

For UCAUAGCAAUAUUACGUAUU, the “self-splicing fitness (ln)” value (30 °C) was -2.48 ± 0.22 and the “self-splicing fitness (ln)” value (37 °C) was -2.85 ± 0.27. Regarding GGAAAGCAAUAUUACGGGGC, the “self-splicing fitness (ln)” value is -3.54 ± 0.28 (30 °C) and -0.864 ± 0.21 (37 °C). In the same order, the values of UGGCAGCAAUAUUACGAACG are -0.0867 ± 0.16 and 0.145 ± 0.2. In the case of GUUAAGCAAUAUUACGUAUG, the “self-splicing fitness (ln)” value runs as follows: (30 °C) -2.44 ± 0.12; (37 °C) -1.36 ± 0.13.

Turning to AGGCAGCAAUAUUACGGAGG, the “self-splicing fitness (ln)” value is -4.29 ± 0.26 (30 °C) and -2.66 ± 0.25 (37 °C). In the case of CGAUAGCAAUAUUACGGAAC, the “self-splicing fitness (ln)” value is -2.5 ± 0.2 (30 °C) and -2.68 ± 0.25 (37 °C). For ACAAAGCAAUAUUACGGACU, the “self-splicing fitness (ln)” value (30 °C) was -0.0658 ± 0.051 and the “self-splicing fitness (ln)” value (37 °C) was determined as 0.338 ± 0.079. On to AAUCAGCAAUAUUACGCGGU, for which the “self-splicing fitness (ln)” value reads like this: (30 °C) -2.35 ± 0.12; (37 °C) -1.14 ± 0.14. With UUUGAGCAAUAUUACGUCUA, the “self-splicing fitness (ln)” value by setting is: (30 °C) -1.05 ± 0.2; (37 °C) -1.06 ± 0.21. With AAAAAGCAAUAUUACGUGAG, the “self-splicing fitness (ln)” value runs as follows: (30 °C) -0.91 ± 0.056; (37 °C) -0.523 ± 0.092. Turning to AAAUAGCAAUAUUACGUUUC, under “30 °C”, the “self-splicing fitness (ln)” value is -3.46 ± 0.39.

As to UUGAAGCAAUAUUACGUGUA, the “self-splicing fitness (ln)” value is -1.7 ± 0.053 (30 °C) and -1.25 ± 0.074 (37 °C).

For the sequence CGUAAGCAAUAUUACGCACA, the “self-splicing fitness (ln)” value is, setting by setting: (30 °C) -1.37 ± 0.18; (37 °C) -0.0497 ± 0.23.

In the case of GUCAAGCAAUAUUACGCAUC, the “self-splicing fitness (ln)” value (30 °C) was -3.22 ± 0.13 and the “self-splicing fitness (ln)” value (37 °C) was -1.74 ± 0.18. The like results for GUUGAGCAAUAUUACGCAUA were, in that order, -2.36 ± 0.24 and -1.1 ± 0.17.

(Values after the supplement of paper PMC7877785.)
